Data on 1 substance can be found in patent US9833505.

This test concerns the target ZIKV Recombinant Envelope Protein (Meridian Life Sciences, Cat # R01635) (Zika virus). The test is described as follows: ELISA on coated recombinant ZIKV E protein, dilutions of the mAb as positive control. (In general: In an ELISA, binding on a coated surface is turned into a signal by an enzyme label.)

“monoclonal anti-Flavivirus group antigen clone D1-4G2-4-15, ascites (Cat# MAB10216, EMD Millipore) (antibody)”: the end point titre stood at 16000.
